Measurements: patent US8648045B2, “VDAC1 compositions and methods of use thereof for regulating apoptosis” (Ben Gurion University of the Negev Research and Development …, priority 2005, dated 2014)

T1: mitochondrial bound HK-I (Rattus norvegicus, UniProt P05708)
T1 construct: from tissue; host or cells: rat brain mitochondria
T1 sequence (P05708 1-918): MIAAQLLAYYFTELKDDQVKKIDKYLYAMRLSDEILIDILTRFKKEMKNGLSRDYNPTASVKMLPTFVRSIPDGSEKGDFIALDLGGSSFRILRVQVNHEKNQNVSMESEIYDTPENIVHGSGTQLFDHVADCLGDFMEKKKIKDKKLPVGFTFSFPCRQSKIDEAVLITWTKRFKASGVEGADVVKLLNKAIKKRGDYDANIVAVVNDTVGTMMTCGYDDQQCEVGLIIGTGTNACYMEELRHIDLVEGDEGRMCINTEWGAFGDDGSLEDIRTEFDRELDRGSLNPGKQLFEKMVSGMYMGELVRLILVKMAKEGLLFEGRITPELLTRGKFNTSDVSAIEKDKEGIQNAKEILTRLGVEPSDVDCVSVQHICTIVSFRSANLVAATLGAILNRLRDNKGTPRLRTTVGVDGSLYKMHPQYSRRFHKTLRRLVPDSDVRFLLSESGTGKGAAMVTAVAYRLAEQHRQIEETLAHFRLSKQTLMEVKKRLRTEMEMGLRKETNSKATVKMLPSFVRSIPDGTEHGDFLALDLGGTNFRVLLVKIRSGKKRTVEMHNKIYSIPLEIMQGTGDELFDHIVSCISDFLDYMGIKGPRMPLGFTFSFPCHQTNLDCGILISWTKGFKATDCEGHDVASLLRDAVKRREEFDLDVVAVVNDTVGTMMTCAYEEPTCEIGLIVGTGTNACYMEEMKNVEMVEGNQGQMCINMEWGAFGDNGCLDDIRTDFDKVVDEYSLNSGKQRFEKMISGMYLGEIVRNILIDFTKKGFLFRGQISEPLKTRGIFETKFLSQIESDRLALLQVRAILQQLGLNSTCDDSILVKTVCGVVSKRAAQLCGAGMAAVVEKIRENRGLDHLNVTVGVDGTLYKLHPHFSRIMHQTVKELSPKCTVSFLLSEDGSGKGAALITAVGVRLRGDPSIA

B1: HK-I: Hexokinase-I, anti-apoptotic mitochondrial protein that binds to VDAC; purified from rat brain or over-expressed recombinant (protein)
chain: T1 sequence (P05708 1-918)

Legend:
Bcl2 = target: T2, Bcl2 (Homo sapiens, UniProt P10415); conditions: expression of peptide N in cells overexpressing Bcl2-GFP; Abu Hamad et al., 2009; cited from earlier work
T2 construct: GFP; expressed in transfected cells

mitochondrial bound HK-I = target: T1, mitochondrial bound HK-I; assay: Detachment of mitochondria-bound HK-I; type: biochemical; conditions: peptide N
[1] = system: permeability transition pore (PTP); assay: PTP opening monitored by Ca2+ accumulation and mitochondrial swelling; type: biochemical, rat; conditions: Ca2+ accumulation and swelling of energized mitochondria
Experimental: Ca^2+ uptake by freshly prepared rat liver mitochondria (0.5 mg/ml) was assayed for 1 to 20 minutes at 30° C. in the presence of 225 mM mannitol, 75 mM sucrose, 120 μM CaCl2 (containing 3×10^4 cpm/nmol [^45Ca^2+]), 5 mM HEPES/KOH, 5 mM succinate and 0.1 mM Pi, pH 7.0. Uptake of ^45Ca^2+ was terminated by rapid Millipore filtration followed by a wash with 5 ml of 150 mM KCl.
Ca^2+-induced mitochondria large amplitude swelling was assayed in freshly-prepared mitochondria under the same conditions as for Ca^2+ accumulation, except that the temperature was 24° C. Cyclosporine A (CsA)-sensitive mitochondrial swelling was initiated upon addition of Ca^2+ (0.2 mM) to the sample. Absorbance changes at 520 nm were monitored every 15-20 sec with an Ultraspec 2100 spectrophotometer.
The failure of non-binding species of HK, such as yeast HK, or trypsin- or chymotrypsin-treated HK-I (FIG. 2D) to prevent PTP opening, confirmed the specificity of the HK-I effect, and of the requirement of the HK-I N-terminal region for its interaction with VDAC.
Mitochondrial swelling was assayed in the absence (control ●) or the presence of HK-I (gray ●) and in presence HK-I pre-incubated with peptide LP1. Mitochondrial swelling was assayed as in FIG. 2 in the absence and the presence of peptide LP1 (0.1 mM or 0.3 mM), brain HK-I (0.25 U/ml) or with HK-I pre-incubated for 10 min with LP1. […]

U937 cells = assay: HK-I over-expression protection against apoptotic cell death in double-transfected cells; type: cell-based, human; conditions: staurosporine (STS)
Experimental: U937 cells were transfected with pcDNA3.1-HisA or pcDNA3.1-HisA-HK-I (neomycin resistance; provided by Dr. J. E. Wilson, University of Michigan) by electroporation, and grown in complete RPMI 1640 with neomycin ([…]). After 12 days, the selected cells were transfected with pEGFP, pEGFP-mVDAC1 or pEGFP-E72Q-mVDAC1 and were grown in the presence of neomycin ([…]). The viability of double-transfected cells was analyzed during 48 to 76 hr.
The effect of HK-I over-expression on apoptotic cell death of the GFP-tagged version of native and E72Q-mVDAC1 over-expressing cells was examined.
Since VDAC1 overexpression induces cell death, U937 cells (FIG. 4A, 4B) or T-Rex™ 293 human embryonic kidney cells (FIG. 4B) were first transformed to stably over-express HK-I and then transfected with native, E65Q, E72Q, K73L, D77N, N75A, or G67A mutated mVDAC1-GFP. […] This β-loop includes amino acid residues T64 to about N78.

[2] = target: T3, recombinant native mVDAC1 (Mus musculus, UniProt Q60932); assay: VDAC channel recording in planar lipid bilayer (PLB); type: biochemical; conditions: HK-I 28.6 mU/ml, 5 min; voltage step 0 to −20 mV; 0.5 M NaCl
T3 construct: made in house; host or cells: yeast (purified from mitochondria of yeast expressing mVDAC1)
Experimental: (§1) Native and mutated mVDAC1 were extracted with lauryldimethylamine N-oxide (LDAO) from mitochondria isolated from yeast expressing various VDACs, and purified by chromatography on hydroxyapatite followed by carboxymethyl (CM)-cellulose where LDAO was replaced by β-OG (β-octylglucoside).
(§2) Reconstitution of purified VDAC into a planar lipid bilayer (PLB) multi-channel current recording and data analyses were carried as follows. Briefly, PLB were prepared from soybean asolactin dissolved in n-decane (50 mg/ml) in a chamber containing 10 mM HEPES/KOH pH 7.4 and 0.5 or 1M NaCl (cis/trans). Only PLBs with a resistance greater than 100 GΩ were used. Purified VDAC (about 1 ng) was added to the chamber defined as the cis side. After one or a few channels inserted into the PLB, excess protein was removed by perfusion of the cis chamber with 20 volumes of a solution (with the same composition as before perfusion), in order to prevent further protein incorporation. Currents were recorded under voltage-clamp mode using a Bilayer Clamp amplifier (Warner Instrument, USA). The currents were measured with respect to the trans side of the membrane (ground). The currents were low-pass filtered at 1 kHz, using a Bessal filter (Frequency Devices, USA) and digitized on-line using a Digidata 1200 interface board and pCLAMP 6 software (Axon Instruments). Sigma Plot 2000 scientific software was used for data analyses. Experiments were performed at 23-25° C.
(§3) FIG. 1A: Purified recombinant native or E72Q-mutated mVDAC1 was reconstituted into a PLB (planar lipid bilayer) in symmetrical solutions of 0.5 M NaCl. Currents through VDAC1 channel in response to a voltage step from zero to −20 mV were recorded before and 5 min after the addition of HK-I (28.6 mU/ml). The dashed lines indicate the zero-current level. […] FIG. 1C: Cytochrome c release was assayed, using a monoclonal anti-cytochrome c antibody, in the absence or the presence of HK-I (1 U/ml), chymotrypsin-treated HK-I (1 U/ml) or CsA (10 micro M).
(§4) RuR, known to interact with several Ca^2+ binding proteins and to inhibit Ca^2+ transport in mitochondria, inhibited channel activity of native but not of E72Q-mutated VDAC1 (FIG. 5E). Purified recombinant native and E72Q-mVDAC1 variant were reconstituted into a planar lipid bilayer (PLB) and the currents produced in response to voltages stepped from a holding potential of 0 mV to −20 mV were recorded. […] The level of inhibition calculated from […] different experiments was 89.2±2.8% (mean±SD, n=9). In contrast, the channel activity of E72Q-mVDAC1 was not inhibited by RuR in all ten experiments.

E72Q-mVDAC1 = target: T4, E72Q-mVDAC1 (Mus musculus, UniProt Q60932, E72Q); assay: as above; type: biochemical; conditions: HK-I 28.6 mU/ml, 5 min; voltage step 0 to −20 mV; 0.5 M NaCl
T4 construct: made in house; host or cells: yeast (purified from mitochondria of yeast expressing mutated mVDAC1)
Experimental: as §1, §2, §3, §4

mitochondria = assay: Release of cytochrome c from mitochondria; type: biochemical, rat; conditions: HK-I 1 U/ml; Western blot
Experimental: Mitochondria (0.5 mg/ml) were incubated with or without 1 U/ml of HK-I for 20 min in a solution containing 150 mM KCl, 25 mM NaHCO3, 5 mM succinate, 1 mM MgCl2, 3 mM KH2PO4, 20 mM HEPES, pH 7.4. Swelling was monitored after the addition of 200 μM Ca^2+. Following complete swelling, the samples were centrifuged and mitochondrial pellets (25 μg) or supernatant (40 μl) were subjected to SDS-PAGE and Western blot analyses using monoclonal anti-cytochrome C antibodies.
as §3
The effects of HK-I are similar to those of the well-known inhibitor of PTP, cyclosporine A (CsA) (FIGS. 1C and 2B).

T2 sequence (P10415 whole entry, species assumed): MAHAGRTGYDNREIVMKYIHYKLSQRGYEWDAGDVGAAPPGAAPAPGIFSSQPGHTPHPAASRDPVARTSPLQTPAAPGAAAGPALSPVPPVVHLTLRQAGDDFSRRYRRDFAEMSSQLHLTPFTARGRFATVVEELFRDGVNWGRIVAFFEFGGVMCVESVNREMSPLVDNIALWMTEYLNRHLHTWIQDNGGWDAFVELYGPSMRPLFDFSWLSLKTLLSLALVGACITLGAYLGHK
T4 sequence (Q60932 14-296 E72Q limits assumed): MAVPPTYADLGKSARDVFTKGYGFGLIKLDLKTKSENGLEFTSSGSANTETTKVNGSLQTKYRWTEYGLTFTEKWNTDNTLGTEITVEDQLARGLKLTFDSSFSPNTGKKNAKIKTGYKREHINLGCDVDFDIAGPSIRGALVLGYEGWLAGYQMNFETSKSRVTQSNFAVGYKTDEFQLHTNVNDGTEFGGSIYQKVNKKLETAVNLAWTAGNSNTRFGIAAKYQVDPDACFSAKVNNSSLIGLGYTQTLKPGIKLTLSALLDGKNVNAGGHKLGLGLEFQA
T3 sequence (Q60932 14-296 limits assumed): as the sequence (Q60932 14-296 E72Q limits assumed) above, with Q59E counted along it

effect of HK-I on VDAC1 channel [2] | Molecule | effect on anti-apoptotic effect of Bcl2 against STS-induced apoptosis (Bcl2) | detachment or prevention of HK-1 binding to the mitochondria (mitochondrial bound HK-I) | prevention of PTP opening [1] | protection by HK-I over-expression against STS-induced apoptosis (U937 cells) | effect of HK-I on VDAC1 channel (E72Q-mVDAC1) | release of cytochrome c from mitochondria (mitochondria)
– | MAVPPTYADLGKSARDVFTKGYGFGL [Peptide N, 26 amino acid peptide derived from the N-terminal cytosolic segment of VDAC1, amino acids 1-26] | reversed the anti-apoptotic effect of BCl2 | Detachment or prevention of HK-1 binding to the mitochondria was also demonstrated | – | – | – | –
induces its closure | B1 | – | – | inhibited PTP opening | protects against apoptosis induced by STS | able to close native VDAC1 but not mutated E72Q-VDAC1 | prevented the release of cytochrome c from mitochondria
